Laboratory results published in US20030108916.

How the values were obtained:
[1] = molecular target: GST-Xchk1-N135A-4AQ (bacterially expressed) (UniProt Q6DE87)
[2] = molecular target: GST-Xchk1(347-374) S365A+S356A (UniProt Q6DE87)
[3] = molecular target: GST-Xchk1(347-374) S356A (UniProt Q6DE87)
[4] = tested on: PHAS-I (model substrate protein)
[5] = molecular target: GST-Xchk1(306-352) T314A (UniProt Q6DE87)
[6] = molecular target: GST-Xchk1(347-374), wildtype peptide fragment (UniProt Q6DE87)
GST-Xchk1(347-374), wildtype peptide fragment, sequence (Q6DE87 347-374): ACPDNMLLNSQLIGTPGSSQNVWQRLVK

[7] = molecular target: GST-Xchk1(306-352) S344A+T314A (UniProt Q6DE87)
GST-Xchk1(306-352) S344A+T314A, sequence (Q6DE87 whole entry T314A/S344A, looked up, the tested form may be a part): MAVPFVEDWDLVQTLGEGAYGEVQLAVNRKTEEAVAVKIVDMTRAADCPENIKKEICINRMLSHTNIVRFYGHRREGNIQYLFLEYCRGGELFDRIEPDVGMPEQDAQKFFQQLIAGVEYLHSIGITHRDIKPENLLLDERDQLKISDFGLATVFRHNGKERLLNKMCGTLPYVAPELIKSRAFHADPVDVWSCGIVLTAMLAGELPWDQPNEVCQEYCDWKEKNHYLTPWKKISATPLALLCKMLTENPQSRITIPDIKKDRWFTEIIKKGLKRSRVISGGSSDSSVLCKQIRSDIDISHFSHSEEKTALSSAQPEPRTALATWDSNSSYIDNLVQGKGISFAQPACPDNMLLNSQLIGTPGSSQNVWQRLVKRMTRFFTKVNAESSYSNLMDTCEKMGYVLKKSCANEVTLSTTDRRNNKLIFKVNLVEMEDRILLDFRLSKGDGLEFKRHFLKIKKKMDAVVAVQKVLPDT

[8] = molecular target: GST-Xchk1(306-352), wild type peptide fragment (UniProt Q6DE87)
GST-Xchk1(306-352), wild type peptide fragment, sequence (Q6DE87 306-352): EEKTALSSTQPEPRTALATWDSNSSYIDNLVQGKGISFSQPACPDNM

[9] = molecular target: GST-Xchk1(347-374) S365A (UniProt Q6DE87)
GST-Xchk1(347-374) S365A, sequence (Q6DE87 whole entry S365A, looked up, tested part not stated): as the sequence (Q6DE87 whole entry T314A/S344A, looked up, the tested form may be a part) above, with A314T, A344S, S365A counted along it

[10] = molecular target: GST-Xchk1(306-352) S344A (UniProt Q6DE87)
GST-Xchk1(306-352) S344A, sequence (Q6DE87 whole entry S344A, looked up, tested part not stated): as the sequence (Q6DE87 whole entry T314A/S344A, looked up, the tested form may be a part) above, with A314T counted along it

[11] = molecular target: GST-Xchk1-N135A (kinase inactive Xchk1 mutant, bacterially expressed) (UniProt Q6DE87)
GST-Xchk1-N135A (kinase inactive Xchk1 mutant, bacterially expressed), sequence (Q6DE87 whole entry N135A, looked up): as the sequence (Q6DE87 whole entry T314A/S344A, looked up, the tested form may be a part) above, with N135A, A314T, A344S counted along it

Wildtype human Flag-tagged ATR isolated from 293T cells, sequence (chain, as listed by the source): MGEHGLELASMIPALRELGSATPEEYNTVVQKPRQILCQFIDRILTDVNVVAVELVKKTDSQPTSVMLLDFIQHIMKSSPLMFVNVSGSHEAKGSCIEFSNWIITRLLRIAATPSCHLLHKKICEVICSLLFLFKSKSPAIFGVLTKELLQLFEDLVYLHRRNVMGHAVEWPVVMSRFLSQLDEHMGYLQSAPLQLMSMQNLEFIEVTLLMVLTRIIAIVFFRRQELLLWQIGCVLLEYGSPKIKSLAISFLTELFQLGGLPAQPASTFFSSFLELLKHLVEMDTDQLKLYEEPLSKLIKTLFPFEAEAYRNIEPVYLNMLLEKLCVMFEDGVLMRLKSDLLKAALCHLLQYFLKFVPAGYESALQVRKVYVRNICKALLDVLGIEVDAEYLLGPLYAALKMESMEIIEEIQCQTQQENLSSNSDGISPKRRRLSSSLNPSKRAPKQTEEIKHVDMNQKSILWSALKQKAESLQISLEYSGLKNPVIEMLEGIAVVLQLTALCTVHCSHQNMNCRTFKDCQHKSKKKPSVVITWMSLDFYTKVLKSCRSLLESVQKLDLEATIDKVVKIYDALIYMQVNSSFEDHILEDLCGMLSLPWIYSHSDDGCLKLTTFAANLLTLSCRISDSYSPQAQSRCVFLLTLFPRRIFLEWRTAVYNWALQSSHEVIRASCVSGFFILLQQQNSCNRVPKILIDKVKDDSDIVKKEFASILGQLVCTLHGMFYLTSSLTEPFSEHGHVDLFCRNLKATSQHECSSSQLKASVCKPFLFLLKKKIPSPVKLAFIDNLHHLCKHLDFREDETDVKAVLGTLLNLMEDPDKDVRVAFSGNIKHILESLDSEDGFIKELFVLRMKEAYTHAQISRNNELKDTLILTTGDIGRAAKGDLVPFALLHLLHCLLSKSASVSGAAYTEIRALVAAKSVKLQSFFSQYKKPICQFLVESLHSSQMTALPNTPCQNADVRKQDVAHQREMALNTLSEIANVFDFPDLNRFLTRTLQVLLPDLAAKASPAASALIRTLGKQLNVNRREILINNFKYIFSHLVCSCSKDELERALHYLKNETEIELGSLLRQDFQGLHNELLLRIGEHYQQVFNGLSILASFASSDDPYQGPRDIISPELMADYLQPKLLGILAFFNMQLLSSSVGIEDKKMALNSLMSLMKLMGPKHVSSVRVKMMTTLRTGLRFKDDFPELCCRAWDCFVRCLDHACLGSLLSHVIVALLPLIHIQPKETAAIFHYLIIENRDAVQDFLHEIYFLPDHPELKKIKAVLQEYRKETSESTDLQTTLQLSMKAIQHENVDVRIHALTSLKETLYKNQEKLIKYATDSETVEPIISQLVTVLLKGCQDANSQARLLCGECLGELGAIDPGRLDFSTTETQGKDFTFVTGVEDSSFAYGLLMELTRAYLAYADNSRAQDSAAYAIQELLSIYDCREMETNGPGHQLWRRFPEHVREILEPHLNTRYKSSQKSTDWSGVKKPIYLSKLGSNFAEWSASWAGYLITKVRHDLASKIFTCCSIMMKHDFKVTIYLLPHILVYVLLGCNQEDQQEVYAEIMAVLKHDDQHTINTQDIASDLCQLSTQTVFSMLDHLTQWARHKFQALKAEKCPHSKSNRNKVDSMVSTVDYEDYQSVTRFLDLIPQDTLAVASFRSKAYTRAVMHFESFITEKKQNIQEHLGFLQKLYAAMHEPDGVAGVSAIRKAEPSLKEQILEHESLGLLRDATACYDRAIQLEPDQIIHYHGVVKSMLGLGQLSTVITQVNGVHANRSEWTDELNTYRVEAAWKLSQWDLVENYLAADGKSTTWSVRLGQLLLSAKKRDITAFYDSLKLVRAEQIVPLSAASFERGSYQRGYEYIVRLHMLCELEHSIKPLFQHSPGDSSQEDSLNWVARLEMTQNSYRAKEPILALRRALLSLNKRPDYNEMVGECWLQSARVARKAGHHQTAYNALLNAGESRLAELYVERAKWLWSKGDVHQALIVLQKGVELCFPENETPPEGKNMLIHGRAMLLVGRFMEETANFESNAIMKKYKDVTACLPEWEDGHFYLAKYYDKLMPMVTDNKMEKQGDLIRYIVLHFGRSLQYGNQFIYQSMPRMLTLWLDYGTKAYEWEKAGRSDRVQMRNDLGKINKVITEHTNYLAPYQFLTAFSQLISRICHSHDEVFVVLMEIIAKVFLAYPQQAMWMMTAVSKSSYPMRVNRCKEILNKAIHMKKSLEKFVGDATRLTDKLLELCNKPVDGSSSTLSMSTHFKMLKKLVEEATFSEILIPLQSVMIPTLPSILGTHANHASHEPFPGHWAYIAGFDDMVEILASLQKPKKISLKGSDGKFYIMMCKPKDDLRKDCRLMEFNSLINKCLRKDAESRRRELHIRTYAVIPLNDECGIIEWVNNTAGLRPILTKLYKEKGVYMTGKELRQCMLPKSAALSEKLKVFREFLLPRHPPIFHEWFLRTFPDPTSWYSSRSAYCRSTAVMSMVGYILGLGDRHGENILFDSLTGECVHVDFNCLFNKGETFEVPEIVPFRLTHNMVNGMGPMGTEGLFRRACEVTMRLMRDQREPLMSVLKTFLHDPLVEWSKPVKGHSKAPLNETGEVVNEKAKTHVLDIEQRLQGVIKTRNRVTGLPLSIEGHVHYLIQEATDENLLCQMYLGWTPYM
GST-Xchk1(347-374) S356A, sequence (Q6DE87 whole entry S356A, looked up, tested part not stated): as the sequence (Q6DE87 whole entry T314A/S344A, looked up, the tested form may be a part) above, with A314T, A344S, S356A counted along it
GST-Xchk1(306-352) T314A, sequence (Q6DE87 whole entry T314A, looked up, the tested form may be a part): as the sequence (Q6DE87 whole entry T314A/S344A, looked up, the tested form may be a part) above, with A344S counted along it
GST-Xchk1(347-374) S365A+S356A, sequence (Q6DE87 whole entry S356A/S365A, looked up, tested part not stated): as the sequence (Q6DE87 whole entry T314A/S344A, looked up, the tested form may be a part) above, with A314T, A344S, S356A, S365A counted along it
GST-Xchk1-N135A-4AQ (bacterially expressed), sequence (Q6DE87 whole entry N135A, looked up): as the sequence (Q6DE87 whole entry T314A/S344A, looked up, the tested form may be a part) above, with N135A, A314T, A344S counted along it

| Substance | in vitro phosphorylation (32P-ATP, autoradiography) [1] | in vitro phosphorylation of Xchk1 peptides [2] | in vitro phosphorylation of Xchk1 peptides [3] | phosphorylation of PHAS-I (in vitro kinase assay, autoradiography) [4] | in vitro phosphorylation of Xchk1 peptides [5] | in vitro phosphorylation of Xchk1 peptides [6] | in vitro phosphorylation of Xchk1 peptides [7] | in vitro phosphorylation of Xchk1 peptides [8] | in vitro phosphorylation of Xchk1 peptides [9] | in vitro phosphorylation of Xchk1 peptides [10] | in vitro phosphorylation (32P-ATP, autoradiography) [11] |
| --- | --- | --- | --- | --- | --- | --- | --- | --- | --- | --- | --- |
| Xenopus laevis ATR (Xatr), endogenous protein in Xenopus egg extracts | the resulting mutant (GST-Xchk1-N135A-4AQ) was not phosphorylated by Xatr (lane 4) | mutation of both sites within each peptide (S365A+S356A or S344A+T314A) abolished phosphorylation by Xatr (lanes 4 and 8) | Xatr phosphorylated Xchk1 when a single SQ or TQ site is mutated although the level of phosphorylation is significantly reduced in comparison to that observed with wildtype peptide | these immunoprecipitates phosphorylated a model substrate protein (PHAS-I) in vitro | Xatr phosphorylated Xchk1 when a single SQ or TQ site is mutated although the level of phosphorylation is significantly reduced in comparison to that observed with wildtype peptide | Xatr phosphorylated both of the wildtype peptide fragments (lanes 1 and 5-top panel) | mutation of both sites within each peptide (S365A+S356A or S344A+T314A) abolished phosphorylation by Xatr (lanes 4 and 8) | Xatr phosphorylated both of the wildtype peptide fragments (lanes 1 and 5-top panel) | Xatr phosphorylated Xchk1 when a single SQ or TQ site is mutated although the level of phosphorylation is significantly reduced in comparison to that observed with wildtype peptide | Xatr phosphorylated Xchk1 when a single SQ or TQ site is mutated although the level of phosphorylation is significantly reduced in comparison to that observed with wildtype peptide | Xatr phosphorylates Xchk1 in vitro (compare lane 5 to lane 6) |
| Wildtype human Flag-tagged ATR isolated from 293T cells | – | human ATR does not phosphorylate the double mutant XChk1 substrates (S365A+S356A or S344A+T314A-as shown in lanes 4 and 12) | human ATR phosphorylated each of the single point mutant Chk1 substrates (S365A, S356A, S344A and T314A); the level of phosphorylation of the single mutant forms of Xchk1 by human ATR is also reduced | – | human ATR phosphorylated each of the single point mutant Chk1 substrates (S365A, S356A, S344A and T314A); the level of phosphorylation of the single mutant forms of Xchk1 by human ATR is also reduced | Wildtype human ATR phosphorylated the wildtype XChk1 peptides Xchk1 (306-352) and Xchk1(347-374) | human ATR does not phosphorylate the double mutant XChk1 substrates (S365A+S356A or S344A+T314A-as shown in lanes 4 and 12) | Wildtype human ATR phosphorylated the wildtype XChk1 peptides Xchk1 (306-352) and Xchk1(347-374) | human ATR phosphorylated each of the single point mutant Chk1 substrates (S365A, S356A, S344A and T314A); the level of phosphorylation of the single mutant forms of Xchk1 by human ATR is also reduced | human ATR phosphorylated each of the single point mutant Chk1 substrates (S365A, S356A, S344A and T314A); the level of phosphorylation of the single mutant forms of Xchk1 by human ATR is also reduced | – |
